Test results: US6987004B1, “Genes integrating signal transduction pathways” (Massachusetts Institute of Technology, priority 1998, dated 2006)

B1: CalDAG-GEFI: guanine nucleotide exchange factor with Ca2+ and DAG binding domains, substrate Rap1A; mouse cDNA expressed in 293T cells (protein)
chain: MASTLDLDKGCTVEELLRGCIEAFDDSGKVRDPQLVRMFLMMHPWYIPSSQLASKLLHFYQQSRKDNSNSLQVKTCHLVRYWVSAFPAEFDLNPELAEPIKELKALLDQEGNRRHSSLIDIESVPTYKWKRQVTQRNPVEQKKRKMSLLFDHLEPMELAEHLTYLEYRSFCKILFQDYHSFVTHGCTVDNPVLERFISLFNSVSQWVQLMILSKPTATQRALVITHFVHVAEKLLQLQNFNTLMAVVGGLSHSSISRLKETHSHVSPDTIKLWEGLTELVTATGNYSNYRRRLAACVGFRFPILGVHLKDLVALQLALPDWLDPGRTRLNGAKMRQLFSILEELAMVTSLRPPVQANPDLLSLLTVSLDQYQTEDELYQLSLQREPRSKSSPTSPTSCTPPPRPPVLEEWTSVAKPKLDQALVAEHIEKMVESVFRNFDVDGDGHISQEEFQIIRGNFPYLSAFGDLDQNQDGCISREEMISYFLRSSSVLGGRMGFVHNFQESNSLRPVACRHCKALILGIYKQGLKCRACGVNCHKQCKDRLSVECRRRAQSVSLEGSAPSPSPTHTHHRAFSFSLPRPGRRSSRPPEIREEEVQTVEDGVFDIHL
B2: CalDAG-GEFII: guanine nucleotide exchange factor activating H-Ras and R-Ras; rat cDNA expressed in 293T cells (protein)
chain: MGTLGKAREAPRKPCHGSRAGPKGRLEAKSTNSPLPAQPSLAQITQFRMMVSLGHLAKGASLDDLIDSCIQSFDADGNLCRSNQLLQVMLTMHRIIISSAELLQKLMNLYKDALEKNSPGICLKICYFVRYWITEFWIMFKMDASLTSTMEEFQDLVKANGEESHCHLIDTTQINSRDWSRKLTQRIKSNTSKKRKVSLLFDHLEPEELSEHLTYLEFKSFRRISFSDYQNYLVNSCVKENPTMERSIALCNGISQWVQLMVLSRPTPQLRAEVFIKFIHVAQKLHQLQNFNTLMAVIGGLCHSSISRLKETSSHVPHEINKVLGEMTELLSSCRNYDNYRRAYGECTHFKIPILGVHLKDLISLYEAMPDYLEDGKVNVQKLLALYNHINELVQLQDVAPPLDANKDLVHLLTLSLDLYYTEDEIYELSYAREPRNHRAPPLTPSKPPVVVDWASGVSPKPDPKTISKHVQRMVDSVFKNYDLDQDGYISQEEFEKIAASFPFSFCVMDKDREGLISRDEITAYFMRASSIYSKLGLGFPHNFQETTYLKPTFCDNCAGFLWGVIKQGYRCKDCGMNCHKQCKDLVVFECKKRSKSPAVSTENISSVVPMSTLCPLGTKDLLHAPEEGSFIFQNGEVVDHSEESKDRTIMLLGVSSQKISVRLKRTVAHKTTQTESFPWVGGEMPPGHFVLTSPRKSAQGALYVHSPASPCPSPALVRKRAFVKWENKESLIKPKPELHLRLRTYQELEQEVNTLRADNDALKIQLKYAQKQIESLQLGKSNHVLAQMDHGDGT
modifications: left off: small tags and cut ends
notes: rat cDNA expressed in 293T cells

Tested on: Elk1
Assay: Elk1 activation in 293T cells (PathDetect Elk1 transreporting system)
Type: cell-based
Settings: for Activation of Elk1 by the GEF itself: 293T cells transfected with the GEF
Procedure: To determine the effect of CalDAG-GEFI on the Erk/MAP kinase cascade, Elk1 activation was measured in 293T cells transfected with CalDAG-GEFI or constitutively active H-Ras (RasV12), or both. 293T cells were transfected by SuperFect (Qiagen) as described in Gotoh, supra, with expression vectors for GST-tagged Ras family proteins and with those for various GEFs. Cells were labeled 24 hours after transfection with ^32Pi for 2 hr. In some experiments, cells were stimulated with either 10 μM A23187 or 1 μM phorbol-12-myristate-13-acetate (TPA) for 3 min. GST-tagged Ras family proteins were collected from cell lysates with glutathione Sepharose. Guanine nucleotides bound to Ras family proteins were separated by thin layer chromatography (TLC). Activation of Elk1 was examined by the PathDetect Elk1 transreporting system (Stratagene). 293T cells were transfected with pFR-Luc and pFA-Elk1 with various expression vectors, and light output was detected and analyzed by the use of LAS1000 film.

Row | Molecule | Reduction of RasV12 activation of Elk1 (293T cells cotransfected with constitutively active H-Ras (RasV12)) | Activation of Elk1 by the GEF itself
1 | B1 | approximately 4 fold | did not itself activate Elk1
2 | B2 | – | increased the transcriptional activity of Elk1
